# Test results published in publication PMC9858354, “Studies with neutralizing antibodies suggest CXCL8-mediated neutrophil activation is independent of C-C motif chemokine receptor-like 2 (CCRL2) ligand binding function” (PLOS ONE, 2023).
# T1: human C-C motif chemokine receptor-like 2 (CCRL2) isoform b, on HEK-huCCRL2 cells (human, UniProt O00421 1-344)
# T1 construct: C-C motif chemokine receptor-like 2 (CCRL2), human, isoform b, codon optimized cDNA; No tag is mentioned for the construct; also called human CCRL2
# T1 sequence (looked up): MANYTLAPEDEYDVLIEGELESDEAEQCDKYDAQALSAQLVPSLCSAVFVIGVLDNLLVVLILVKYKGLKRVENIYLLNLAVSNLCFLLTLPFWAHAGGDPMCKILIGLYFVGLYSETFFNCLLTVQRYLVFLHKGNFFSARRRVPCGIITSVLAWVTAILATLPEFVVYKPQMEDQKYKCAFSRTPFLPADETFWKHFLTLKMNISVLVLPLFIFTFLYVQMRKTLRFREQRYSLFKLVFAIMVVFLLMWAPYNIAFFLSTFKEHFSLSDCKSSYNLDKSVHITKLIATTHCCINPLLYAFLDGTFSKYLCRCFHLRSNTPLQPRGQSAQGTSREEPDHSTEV
# T2: mouse C-C motif chemokine receptor-like 2 (CCRL2) isoform b, on HEK-muCCRL2 cells (mouse, UniProt O35457 1-360)
# T2 construct: C-C motif chemokine receptor-like 2 (CCRL2), mouse, printed as isoform b, codon optimized cDNA; also called murine CCRL2
# T2 sequence (looked up): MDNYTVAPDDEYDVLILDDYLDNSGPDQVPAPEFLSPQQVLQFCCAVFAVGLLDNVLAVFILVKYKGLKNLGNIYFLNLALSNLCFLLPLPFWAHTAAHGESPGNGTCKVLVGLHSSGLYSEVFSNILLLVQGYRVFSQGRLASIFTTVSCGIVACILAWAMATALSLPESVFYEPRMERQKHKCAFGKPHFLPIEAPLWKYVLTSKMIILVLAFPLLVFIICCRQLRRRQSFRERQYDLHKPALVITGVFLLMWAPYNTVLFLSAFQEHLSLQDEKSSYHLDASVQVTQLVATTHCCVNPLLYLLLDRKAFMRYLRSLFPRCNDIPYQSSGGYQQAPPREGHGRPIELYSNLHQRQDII
# How the values were obtained:
# Conditions in all cases: one partner purified
# [1] = target: T1, human C-C motif chemokine receptor-like …; assay: SPR; live-cell SPR microscopy (SPRm 200); HEK-huCCRL2 cells seeded on collagen-coated gold slides; analyte injected at 150 ul/min, contact 3 min, dissociation 5 min; running buffer PBS + 0.1% BSA; chemerin 10-400 nM; 1:1 binding model; n = 3
# [2] = target: T1, human C-C motif chemokine receptor-like …; assay: flow cytometry on cells; serially diluted biotin-labeled ligand on HEK-huCCRL2, HEK-muCCRL2 or parental HEK cells (2x10^4 cells/well, 384-well), PBS + 0.1% BSA, 4°C 45 min, detected with RRX-streptavidin; MFI normalized to parental HEK cell binding; EC50 from four-parameter fit
# [3] = target: T1, human C-C motif chemokine receptor-like …; assay: flow cytometry on cells; competition: HEK-huCCRL2 or HEK-muCCRL2 cells incubated with serially diluted unlabeled competitor at 4°C 45 min, then 10 nM biotin-labeled chemerin at 4°C 45 min, RRX-streptavidin; IC50 from four-parameter fit
# [4] = target: T2, mouse C-C motif chemokine receptor-like …; assay: as above
# [5] = target: T2, mouse C-C motif chemokine receptor-like …; assay: flow cytometry on cells; serially diluted biotin-labeled ligand on HEK-huCCRL2, HEK-muCCRL2 or parental HEK cells (2x10^4 cells/well, 384-well), PBS + 0.1% BSA, 4°C 45 min, detected with RRX-streptavidin; MFI normalized to parental HEK cell binding; EC50 from four-parameter fit
Binder,Kd [1],koff [1],kon [1],EC50 [2],IC50 [3],IC50 [4],EC50 [5]
"biotin-labeled recombinant active human chemerin (residues 21-157) (ligand, UniProt Q99969 21-157, looked up, biotin (EZ-Link Sulfo-NHS-LC-Biotin, biotin-to-analyte molar ratio 5:1; any reactive primary amine), active human chemerin, Uniprot entry Q99969, residues 21-157; also called Biotin-chemerin; biotinylated chemerin; not shown: Fc (human IgG1, monovalent) with TEV site, N-terminal, cleaved) ELTEAQRRGLQVALEEFHKHPPVQWAFQETSVESAVDTPFPAGIFVRLEFKLQQTSCRKRDWKKPECKVRPNGRKRKCLACIKLGSEDKVLGRLVHCPIETQVLREAEEHQETQCLRVQRAGEDPHSFYFPGQFAFS",8.55 nM,0.00184 s⁻¹,297000 M⁻¹ s⁻¹,4.2 nM,–,–,–
"recombinant active human chemerin (residues 21-157), unlabeled (ligand, UniProt Q99969 21-157, looked up, active human chemerin, Uniprot entry Q99969, residues 21-157; Construct is named hIgG1 monovalent Fc-TEV-chemerin; also called label-free chemerin; unlabeled chemerin; source: HEK 293F, transient, purified (Protein A, TEV cleavage, Protein A and Ni-NTA removal, Superdex 75 SEC); not shown: Fc (human IgG1, monovalent) with TEV site, N-terminal, cleaved) ELTEAQRRGLQVALEEFHKHPPVQWAFQETSVESAVDTPFPAGIFVRLEFKLQQTSCRKRDWKKPECKVRPNGRKRKCLACIKLGSEDKVLGRLVHCPIETQVLREAEEHQETQCLRVQRAGEDPHSFYFPGQFAFS",5.49 nM,0.00116 s⁻¹,311000 M⁻¹ s⁻¹,–,7.55 nM,–,–
"recombinant active mouse chemerin (residues 21-156), unlabeled (ligand, UniProt Q9DD06 21-156, looked up, active mouse chemerin, Uniprot entry Q9DD06, residues 21-156; Construct is named hIgG1 monovalent Fc-TEV-chemerin; also called murine chemerin; unlabeled murine chemerin; source: HEK 293F, transient, purified (Protein A, TEV cleavage, Protein A and Ni-NTA removal, Superdex 75 SEC); not shown: Fc (human IgG1, monovalent) with TEV site, N-terminal, cleaved) EPELSETQRRSLQVALEEFHKHPPVQLAFQEIGVDRAEEVLFSAGTFVRLEFKLQQTNCPKKDWKKPECTIKPNGRRRKCLACIKMDPKGKILGRIVHCPILKQGPQDPQELQCIKIAQAGEDPHGYFLPGQFAFS",–,–,–,–,–,21.1 nM,–
"biotin-labeled recombinant active mouse chemerin (residues 21-156) (ligand, UniProt Q9DD06 21-156, looked up, biotin (EZ-Link Sulfo-NHS-LC-Biotin, biotin-to-analyte molar ratio 5:1; any reactive primary amine), active mouse chemerin, Uniprot entry Q9DD06, residues 21-156; also called biotinylated murine chemerin; biotin-labeled murine chemerin; not shown: Fc (human IgG1, monovalent) with TEV site, N-terminal, cleaved) EPELSETQRRSLQVALEEFHKHPPVQLAFQEIGVDRAEEVLFSAGTFVRLEFKLQQTNCPKKDWKKPECTIKPNGRRRKCLACIKMDPKGKILGRIVHCPILKQGPQDPQELQCIKIAQAGEDPHGYFLPGQFAFS",–,–,–,–,–,–,143 nM
